Assay results published in the Human Domainome abundance scans (Beltran et al. 2025).

B1: Zinc finger homeobox protein 3, residues 2643 to 2698; numbered along this chain, Q15911 (parent)
chain: RLRTTITPEQLEILYQKYLLDSNPTRKMLDHIAHEVGLKKRVVQVWFQNTRARERK

Variants of: B1
Experiment: abundance fitness (aPCA) (normalised: wild type 0, dead -1); higher = more abundant; growth selection in yeast, the domain comes from the species named
Conditions: Homo sapiens

Abundance fitness: each site, then its substitutions
W46: I -1.03 | N -0.902 | R -0.678 | T -0.865 | H -0.897 | F -0.462 | Q -0.829 | Y -0.261 | G -0.792 | A -0.482 | E -1.08 | D -0.815 | P -0.891 | S -0.867 | M -0.956 | L -0.758
G37: I -0.891 | W -0.92 | R -0.27 | F -0.55 | D -0.384 | Q -0.147 | P -0.637 | T -0.825 | V -0.812 | Y -0.919 | M -0.53 | C -0.297 | H -0.404 | A -0.366 | N -0.306 | K -0.007
A33: P -0.746 | D -0.866 | V -0.492 | W -0.728 | K -0.804 | M -0.832 | T -0.43 | Y -0.822 | N -0.906 | G -0.398 | S -0.06 | E -0.759 | C -0.127 | L -0.872 | Q -0.845
L29: G -0.683 | H -0.766 | P -0.8 | N -0.724 | Q -0.254 | F 0.069 | V -0.043 | I 0.167 | A -0.552 | S -0.488 | R -0.544 | C -0.056 | M 0.028 | T -0.273 | K -0.695 | D -0.805 | E -0.159
H34: L -0.225 | K 0.213 | Q -0.017 | Y -0.012 | P -0.739 | I -0.632 | G 0.062 | D 0.035 | A -0.123 | E 0.099 | M -0.092 | C -0.075 | S 0.009 | F -0.114 | N -0.044 | W -0.095
L38: I -0.786 | Y -1 | C -0.329 | V -0.163 | N -1.02 | G -0.972 | S -0.601 | M -0.009 | W -0.746 | E -0.869 | F -0.819 | K -0.712 | T -0.616 | H -0.737 | Q -0.734 | R -0.846
H31: E 0.265 | V 0.134 | D 0.348 | L 0.056 | K -0.166 | P -0.836 | I 0.009 | A 0.109 | C 0.096 | Y -0.014 | Q 0.169 | R -0.237 | M 0.073 | N 0.315 | G 0.198 | W -0.251 | F -0.068 | S 0.215
Q44: M -0.164 | E 0.283 | S -0.044 | I -0.286 | V -0.179 | D 0.481 | G 0.023 | Y -0.114 | R -0.331 | H -0.038 | W -0.669 | K -0.236 | T -0.209 | C -0.193 | P -0.723 | L -0.347 | A 0
M28: I -0.557
V45: M -0.005 | Q -0.016 | R -0.561 | G -0.213 | N -0.489 | C -0.329 | L 0.122 | E 0.452 | P -0.764 | H -0.001 | T -0.24 | A -0.365 | Y -0.263 | F -0.028 | S -0.359 | K -0.399 | W -0.317 | I 0.158
F47: C -0.945 | A -0.904 | D -0.833
R41: Q 0.287 | Y -0.129 | E 0.475 | T 0.514 | P -0.144 | M -0.078 | N 0.2 | C 0.256 | K 0.297 | V 0.041 | S 0.411 | I 0.544 | H 0.031 | F -0.203 | A 0.159 | G 0.353 | W 0.055 | D 0.773 | L -0.001
K40: Y 0.16 | C -0.195 | W 0.212 | D 0.006 | M 0.192 | P 0.258 | L 0.283 | R -0.064 | V 0.161 | S 0.237 | H -0.049 | A 0.144 | N 0.238 | T 0.355 | G 0.04 | I 0.093
V43: L -0.485 | F -0.815 | I -0.127 | D -0.867 | Q -1 | Y -0.807 | P -0.739 | N -0.64 | R -1.03 | E -1.11 | S -0.821 | H -0.973 | T -0.548 | C -0.345 | M -0.889 | W -1.07 | G -0.937
R26: L 0.266 | I 0.323 | H 0.324 | S 0.428 | W 0.401 | V 0.383 | N 0.339 | K 0.123 | P 0.35 | Y -0.031
V42: G -0.43 | M -0.068 | K 0.16 | H -0.288 | D 0.226 | Y -0.021 | L -0.03 | S -0.327 | A -0.123 | N -0.02 | T 0.037 | R -0.44 | P -0.932 | W -0.048 | E 0.387 | I -0.073 | Q -0.372 | F -0.47 | C -0.021
K27: V -0.007 | Y -0.241 | G 0.077 | I -0.028 | C -0.342 | F -0.293 | P 0.16 | D 0.229 | A 0.018 | M -0.177 | R -0.444 | T 0.036 | E 0.243 | N -0.246
I32: S -0.735 | R -1.01 | A -0.886 | W -0.129 | D -1.02 | C -0.749 | T -0.274 | M -0.466 | E -0.9 | L -0.123 | H -0.527 | K -0.807 | N -1.25 | F -0.108 | G -0.77 | V -0.078 | Y -0.378 | P -0.915
E35: F -0.557 | I -0.029 | K -0.356 | W -0.509 | A -0.127 | Q -0.016 | H -0.274 | L -0.205 | N -1.01 | S -0.224 | C -0.351 | G -0.487 | V -0.255 | T 0.063 | M -0.417 | Y -0.556
V36: G -0.732 | M -0.427 | T 0.053 | R -0.82 | I 0.191 | S -0.134 | E -1.11 | A -0.114 | Y -0.896 | N -0.761 | H -0.964 | W -0.495 | P -1 | F -0.568 | L -0.145 | D -0.853 | K -0.985
K39: Q 0.108 | D 0.189 | Y -0.114 | R -0.012 | L -0.324 | E 0.518 | F -0.929 | M 0.13 | W -0.77 | G 0.178 | C 0.184 | H -0.392 | V -0.01 | N -0.153 | P 0.224 | T 0.373 | A 0.236
D30: L -0.435 | S -0.108 | C -0.486 | A -0.046 | K -0.214 | R -0.124 | Q 0.1 | V -0.223 | M -0.314 | I -0.071 | F -0.446 | G -0.073 | P -0.543 | W -0.442 | H 0.007 | E -0.29 | T -0.312 | Y -0.269
